B1: FtsZ (natural protein, B. subtilis, UniProt P17865 1-382, looked up)
chain: MLEFETNIDGLASIKVIGVGGGGNNAVNRMIENEVQGVEYIAVNTDAQALNLSKAEVKMQIGAKLTRGLGAGANPEVGKKAAEESKEQIEEALKGADMVFVTAGMGGGTGTGAAPVIAQIAKDLGALTVGVVTRPFTFEGRKRQLQAAGGISAMKEAVDTLIVIPNDRILEIVDKNTPMLEAFREADNVLRQGVQGISDLIATPGLINLDFADVKTIMSNKGSALMGIGIATGENRAAEAAKKAISSPLLEAAIDGAQGVLMNITGGTNLSLYEVQEAADIVASASDQDVNMIFGSVINENLKDEIVVTVIATGFIEQEKDVTKPQRPSLNQSIKTHNQSVPKREPKREEPQQQNTVSRHTSQPADDTLDIPTFLRNRNKRG
notes: Cell division protein FtsZ of Bacillus subtilis; source: purified as described [25], > 95% purity
B2: MBP-strep-tag-SpoIIEcyt fusion protein (cytoplasmic part of SpoIIE, domains II and III) (domain or fragment, B. subtilis 168, UniProt P37475 326-827, looked up)
chain: RKVARYIPGTVEHLQEQQQYARKIRDVTAQKVDQFSNVFHALSESFATFYQASDEQTDDSEVDLFLSKITEHSCQTCYKKNRCWVQNFDKTYDLMKQVMLETEEKEYASNRRLKKEFQQYCSKSKQVEELIEDELAHHHAHLTLKKKVQDSRRLVAEQLLGVSEVMADFSREIKREREQHFLQEEQIIEALQHFGIEIQHVEIYSLEQGNIDIEMTIPFSGHGESEKIIAPMLSDILEEQILVKAEQHSPHPNGYSHVAFGSTKSYRVSTGAAHAAKGGGLVSGDSYSMMELGARKYAAAISDGMGNGARAHFESNETIKLLEKILESGIDEKIAIKTINSILSLRTTDEIYSTLDLSIIDLQDASCKFLKVGSTPSFIKRGDQVMKVQASNLPIGIINEFDVEVVSEQLKAGDLLIMMSDGIFEGPKHVENHDLWMKRKMKGLKTNDPQEIADLLMEEVIRTRSGQIEDDMTVVVVRIDHNTPKWASIPVPAIFQNKQEIS
notes: SpoIIE of Bacillus subtilis 168, domains II and III (cytoplasmic part), amino acids 326-827; called a 501 residue fragment; Order on the chain: MBP (from pMalC2x), short strep-tag, SpoIIE 326-827; Co-purifies with about 2 Fe per protein; also called ms-SpoIIEcyt; source: E. coli BL21-RIL, purified (amylose resin, eluted with maltose); not shown: MBP, N-terminal, kept; strep-tag, N-terminal, kept
B3: strep-tagged-SpoIIEcyt (cytoplasmic part of SpoIIE, MBP removed) (domain or fragment, B. subtilis 168, UniProt P37475 326-827, looked up)
chain: B2 chain
notes: SpoIIE of Bacillus subtilis 168, domains II and III (cytoplasmic part), amino acids 326-827; called a 501 residue fragment; also called s-SpoIIEcyt; strep-SpoIIEcyt; not shown: MBP, N-terminal, cleaved; strep-tag, N-terminal, kept

The target in data set [1] is B3. The experiment in a line: 90° light scattering; 10 μM FtsZ and/or 1.5 μM s-SpoIIEcyt in 50 mM Tris/HCl pH 7.5, 300 mM KCl, 10 mM MgCl2; 2 mM GTP or GDP added after 90 s; 30°C; controls of FtsZ alone with Mn2+ or EDTA. The conditions noted are these: both partners purified.
Data set [2] concerns the molecule itself. The description is as above.
Data set [3] deals with the molecule itself. The experiment in a line: co-sedimentation; 10 μM ms-SpoIIEcyt in 50 mM MES/NaOH pH 6.5, 50 mM KCl; after 1 mM EDTA, 5 mM MnCl2 added for 30 min; spun at 186,000 x g, supernatant and pellet on SDS-PAGE.
Data set [4] deals with the molecule itself. Nature of the data set: transmission electron microscopy; 10 μM FtsZ with or without 1.5 μM s-SpoIIEcyt, or 1.5 μM s-SpoIIEcyt alone with 10 mM MnCl2, in 50 mM Tris/HCl pH 7.5, 300 mM KCl with 1 mM EDTA or 10 mM MgCl2 or 10 mM MnCl2; GTP or GDP; samples taken after 30 min at 30°C.

For B1, the binding result in data set [1] and in data set [2] was “binds” throughout.
For the molecule B2, in data set [3], the binding result was “binds”.
With B3, the binding result in data set [4] is on record as “binds”.

The values are drawn from publication PMC5373596, “Metal-dependent SpoIIE oligomerization stabilizes FtsZ during asymmetric division in Bacillus subtilis” (PLoS ONE, 2017).
